Source: US20230272045A1

How the values were obtained:
[1] = target: human vitronectin (human) (UniProt P04004); assay: ELISA
human tenascin C (human) = human tenascin C (human) (UniProt P24821); assay: ELISA
[2] = target: human plasma fibronectin (human) (UniProt P02751); assay: ELISA
fibrin matrix = fibrin matrix (UniProt P02671); assay: cell-based or functional assay
fibrin matrix, sequence (P02671 other isoform, or with tags, fused parts or gaps, chain 1 of 3): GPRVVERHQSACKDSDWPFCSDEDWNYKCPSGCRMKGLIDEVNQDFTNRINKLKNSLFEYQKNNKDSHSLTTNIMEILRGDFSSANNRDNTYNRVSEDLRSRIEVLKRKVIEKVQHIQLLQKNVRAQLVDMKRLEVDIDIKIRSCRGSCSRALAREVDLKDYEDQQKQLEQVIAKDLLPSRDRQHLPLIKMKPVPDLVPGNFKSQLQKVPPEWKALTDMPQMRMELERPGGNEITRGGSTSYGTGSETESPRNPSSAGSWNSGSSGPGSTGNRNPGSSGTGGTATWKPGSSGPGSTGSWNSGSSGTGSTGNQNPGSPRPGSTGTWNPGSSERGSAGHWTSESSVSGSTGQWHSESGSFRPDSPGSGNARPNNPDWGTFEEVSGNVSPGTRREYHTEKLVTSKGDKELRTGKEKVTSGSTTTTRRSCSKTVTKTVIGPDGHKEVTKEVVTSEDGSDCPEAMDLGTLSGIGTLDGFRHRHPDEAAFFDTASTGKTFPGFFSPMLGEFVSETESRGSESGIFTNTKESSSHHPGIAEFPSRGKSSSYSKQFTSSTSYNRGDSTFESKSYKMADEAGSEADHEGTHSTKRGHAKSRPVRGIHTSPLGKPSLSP
fibrin matrix, sequence (P02675 45-491, chain 2 of 3, further chain): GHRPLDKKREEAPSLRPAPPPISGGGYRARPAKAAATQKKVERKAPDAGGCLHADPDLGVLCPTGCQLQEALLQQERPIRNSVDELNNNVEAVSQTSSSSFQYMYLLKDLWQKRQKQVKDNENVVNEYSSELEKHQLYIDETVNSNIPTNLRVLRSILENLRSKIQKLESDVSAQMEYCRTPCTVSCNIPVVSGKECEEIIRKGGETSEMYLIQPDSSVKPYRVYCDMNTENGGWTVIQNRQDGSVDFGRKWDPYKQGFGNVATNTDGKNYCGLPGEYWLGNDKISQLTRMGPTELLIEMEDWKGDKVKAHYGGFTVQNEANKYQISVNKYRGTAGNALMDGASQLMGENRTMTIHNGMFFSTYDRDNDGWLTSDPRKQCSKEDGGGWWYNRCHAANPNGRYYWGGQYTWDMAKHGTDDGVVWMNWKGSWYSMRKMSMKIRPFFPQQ
fibrin matrix, sequence (P02679 other isoform, or with tags, fused parts or gaps, chain 3 of 3, further chain): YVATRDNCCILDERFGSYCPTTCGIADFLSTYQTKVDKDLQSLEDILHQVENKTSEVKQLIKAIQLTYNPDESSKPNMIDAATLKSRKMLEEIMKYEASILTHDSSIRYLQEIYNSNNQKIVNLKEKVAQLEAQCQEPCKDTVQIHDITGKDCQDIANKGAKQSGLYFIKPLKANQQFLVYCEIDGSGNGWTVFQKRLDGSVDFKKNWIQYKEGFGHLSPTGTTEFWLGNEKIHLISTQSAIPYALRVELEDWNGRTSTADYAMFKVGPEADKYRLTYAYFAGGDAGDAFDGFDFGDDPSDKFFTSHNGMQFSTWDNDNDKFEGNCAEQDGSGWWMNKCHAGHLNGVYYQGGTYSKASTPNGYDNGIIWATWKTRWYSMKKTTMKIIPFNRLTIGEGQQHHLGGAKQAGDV

human vitronectin (human), sequence (P04004 20-478): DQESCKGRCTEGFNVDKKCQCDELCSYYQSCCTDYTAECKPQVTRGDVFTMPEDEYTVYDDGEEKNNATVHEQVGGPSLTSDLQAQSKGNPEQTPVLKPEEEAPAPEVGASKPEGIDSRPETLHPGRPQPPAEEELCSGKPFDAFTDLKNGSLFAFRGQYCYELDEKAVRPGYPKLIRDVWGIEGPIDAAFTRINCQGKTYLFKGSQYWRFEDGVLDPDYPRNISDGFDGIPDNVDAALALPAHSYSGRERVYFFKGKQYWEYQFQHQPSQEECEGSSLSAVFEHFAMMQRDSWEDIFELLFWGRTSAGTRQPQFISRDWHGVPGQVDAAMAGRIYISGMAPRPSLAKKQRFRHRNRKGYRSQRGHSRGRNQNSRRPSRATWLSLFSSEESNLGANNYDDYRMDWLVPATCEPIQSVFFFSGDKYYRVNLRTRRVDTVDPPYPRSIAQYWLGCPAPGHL
human plasma fibronectin (human), sequence (P02751 other isoform, or with tags, fused parts or gaps): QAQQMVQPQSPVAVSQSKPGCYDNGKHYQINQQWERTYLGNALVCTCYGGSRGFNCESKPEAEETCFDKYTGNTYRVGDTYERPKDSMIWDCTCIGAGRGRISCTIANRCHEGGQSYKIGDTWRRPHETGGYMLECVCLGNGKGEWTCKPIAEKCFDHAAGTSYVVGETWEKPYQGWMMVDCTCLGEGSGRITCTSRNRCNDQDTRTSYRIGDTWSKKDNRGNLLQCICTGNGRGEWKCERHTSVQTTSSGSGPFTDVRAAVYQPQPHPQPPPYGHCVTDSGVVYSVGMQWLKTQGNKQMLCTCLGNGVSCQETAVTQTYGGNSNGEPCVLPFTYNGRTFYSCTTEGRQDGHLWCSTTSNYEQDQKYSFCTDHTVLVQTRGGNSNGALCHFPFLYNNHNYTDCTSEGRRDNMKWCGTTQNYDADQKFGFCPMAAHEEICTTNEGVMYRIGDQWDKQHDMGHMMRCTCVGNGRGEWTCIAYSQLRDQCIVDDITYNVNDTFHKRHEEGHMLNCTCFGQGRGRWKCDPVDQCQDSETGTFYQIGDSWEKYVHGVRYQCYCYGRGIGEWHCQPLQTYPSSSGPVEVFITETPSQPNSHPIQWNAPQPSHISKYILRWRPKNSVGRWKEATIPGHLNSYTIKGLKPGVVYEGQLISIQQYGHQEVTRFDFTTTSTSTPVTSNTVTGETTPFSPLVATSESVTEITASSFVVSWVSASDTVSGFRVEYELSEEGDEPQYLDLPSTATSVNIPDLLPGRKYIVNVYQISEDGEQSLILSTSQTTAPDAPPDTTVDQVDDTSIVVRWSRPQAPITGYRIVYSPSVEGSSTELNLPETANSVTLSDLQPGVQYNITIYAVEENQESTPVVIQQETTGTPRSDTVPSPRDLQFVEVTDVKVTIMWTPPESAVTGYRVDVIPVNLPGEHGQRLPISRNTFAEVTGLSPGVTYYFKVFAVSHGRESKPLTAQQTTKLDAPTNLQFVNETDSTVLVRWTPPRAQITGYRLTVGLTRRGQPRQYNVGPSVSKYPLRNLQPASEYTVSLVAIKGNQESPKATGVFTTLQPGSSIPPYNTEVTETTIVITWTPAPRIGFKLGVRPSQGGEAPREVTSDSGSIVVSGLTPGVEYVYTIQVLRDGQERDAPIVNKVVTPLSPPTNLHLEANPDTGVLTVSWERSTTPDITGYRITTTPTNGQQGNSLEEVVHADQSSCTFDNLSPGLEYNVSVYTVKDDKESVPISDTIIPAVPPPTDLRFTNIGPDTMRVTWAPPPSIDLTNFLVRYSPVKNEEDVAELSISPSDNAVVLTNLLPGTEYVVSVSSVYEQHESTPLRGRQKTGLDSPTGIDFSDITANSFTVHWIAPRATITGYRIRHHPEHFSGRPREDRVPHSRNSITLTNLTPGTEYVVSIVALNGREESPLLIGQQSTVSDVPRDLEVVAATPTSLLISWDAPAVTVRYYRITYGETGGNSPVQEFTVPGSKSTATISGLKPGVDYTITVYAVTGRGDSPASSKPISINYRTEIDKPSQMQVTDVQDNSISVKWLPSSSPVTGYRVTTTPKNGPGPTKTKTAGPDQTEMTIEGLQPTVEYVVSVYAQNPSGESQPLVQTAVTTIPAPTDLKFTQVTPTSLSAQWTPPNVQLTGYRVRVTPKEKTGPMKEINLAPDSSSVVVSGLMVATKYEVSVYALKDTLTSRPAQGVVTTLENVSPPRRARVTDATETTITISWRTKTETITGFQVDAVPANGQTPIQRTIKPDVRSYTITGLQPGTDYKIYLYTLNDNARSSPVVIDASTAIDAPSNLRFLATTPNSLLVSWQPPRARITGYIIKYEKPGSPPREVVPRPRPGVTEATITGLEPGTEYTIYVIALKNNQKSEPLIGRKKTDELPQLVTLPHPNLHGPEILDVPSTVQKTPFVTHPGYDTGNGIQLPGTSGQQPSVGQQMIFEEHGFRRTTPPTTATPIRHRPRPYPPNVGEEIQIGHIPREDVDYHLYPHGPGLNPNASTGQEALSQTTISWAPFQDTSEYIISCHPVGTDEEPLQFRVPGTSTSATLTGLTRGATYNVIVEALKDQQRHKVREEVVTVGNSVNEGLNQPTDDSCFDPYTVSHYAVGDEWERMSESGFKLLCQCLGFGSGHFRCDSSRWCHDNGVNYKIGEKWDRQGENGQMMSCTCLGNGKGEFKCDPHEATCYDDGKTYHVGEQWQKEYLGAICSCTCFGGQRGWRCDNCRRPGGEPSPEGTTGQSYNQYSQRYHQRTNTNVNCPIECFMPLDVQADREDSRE

| Substance | Kd [1] | Kd (human tenascin C (human)) | Kd [2] | release from a fibrin matrix (fraction of the protein dose released) (fibrin matrix) |
| --- | --- | --- | --- | --- |
| AREG126-138/PDGF-BB (from UniProt P31240 80-190) | 1.9 nM | 18.1 nM | 7.9 nM | – |
| PIGF-1 (from UniProt P49763 19-149) (ligand) | – | – | – | > 60% |
